Reference: US20130209454A1
Numbering of substitutions follows the chain as printed. Names may count otherwise.

What was measured:
Assay in all cases: cell-based or functional assay
[1] = molecular target: HIV-1 Env of strain 0260.v5.c36 (HIV-1)
[2] = molecular target: HIV-1 Env of strain A07412M1.vrc12 (HIV-1)
[3] = molecular target: HIV-1 Env of strain 6952.v1.c20 (HIV-1)
[4] = molecular target: HIV-1 Env of strain BF1266.431a (HIV-1)
[5] = molecular target: HIV-1 Env of strain 7030102001E5(Rev) (HIV-1)
[6] = molecular target: HIV-1 Env of strain HIV-16055-2.3 (HIV-1)
[7] = molecular target: HIV-1 Env of strain BJOX009000.02.4 (HIV-1)
[8] = molecular target: HIV-1 Env of strain 6041.v3.c23 (HIV-1)
[9] = molecular target: HIV-1 Env of strain 1012_11_TC21_3257 (HIV-1)
[10] = molecular target: HIV-1 Env of strain CNE52 (HIV-1)
[11] = molecular target: HIV-1 Env of strain BJOX028000.10.3 (HIV-1)
[12] = molecular target: HIV-1 Env of strain 6240_08_TA5_4622 (HIV-1)
[13] = molecular target: HIV-1 Env of strain HIV-001428-2.42 (HIV-1)
[14] = molecular target: HIV-1 Env of strain SC05_8C11_2344 (HIV-1)
[15] = molecular target: HIV-1 Env of strain CNE5 (HIV-1)
[16] = molecular target: Env of HIV-1 strain 7030102001E5(Rev-) (HIV-1)
[17] = molecular target: Env of HIV-1 strain 3817.v2.c59 (HIV-1)
[18] = molecular target: Env of HIV-1 strain 263-8 (HIV-1)
[19] = molecular target: Env of HIV-1 strain 620345.c01 (HIV-1)
[20] = molecular target: Env of HIV-1 strain WITO4160.33 (HIV-1)
[21] = molecular target: Env of HIV-1 strain Ce1176_A3 (HIV-1)
[22] = molecular target: Env of HIV-1 strain Q259.d2.17 (HIV-1)
[23] = molecular target: Env of HIV-1 strain 3016.v5.c45 (HIV-1)
[24] = molecular target: Env of HIV-1 strain 928-28 (HIV-1)
[25] = molecular target: Env of HIV-1 strain 3301.v1.c24 (HIV-1)
[26] = molecular target: Env of HIV-1 strain 6540.v4.c1 (HIV-1)
[27] = molecular target: Env of HIV-1 strain Q842.d12 (HIV-1)
[28] = molecular target: Env of HIV-1 strain BF1266.431a (HIV-1)
[29] = molecular target: Env of HIV-1 strain 191821_E6_1 (HIV-1)
[30] = molecular target: Env of HIV-1 strain P1981_C5_3 (HIV-1)
[31] = molecular target: Env of HIV-1 strain 6240_08_TA5_4622 (HIV-1)
[32] = molecular target: Env of HIV-1 strain 231966.c02 (HIV-1)
[33] = molecular target: Env of HIV-1 strain Du422.1 (HIV-1)
[34] = molecular target: Env of HIV-1 strain HIV-16845-2.22 (HIV-1)
[35] = molecular target: Env of HIV-1 strain CNE30 (HIV-1)
[36] = molecular target: Env of HIV-1 strain ZM249M.PL1 (HIV-1)
[37] = molecular target: Env of HIV-1 strain 1056_10_TA11_1826 (HIV-1)
[38] = molecular target: Env of HIV-1 strain ZM53M.PB12 (HIV-1)
[39] = molecular target: Env of HIV-1 strain 1054_07_TC4_1499 (HIV-1)
[40] = molecular target: Env of HIV-1 strain REJO4541.67 (HIV-1)
[41] = molecular target: Env of HIV-1 strain 235-47 (HIV-1)
[42] = molecular target: Env of HIV-1 strain CNE17 (HIV-1)
[43] = molecular target: Env of HIV-1 strain 3415.v1.c1 (HIV-1)
[44] = molecular target: Env of HIV-1 strain CNE21 (HIV-1)
[45] = molecular target: Env of HIV-1 strain 6244_13_B5_4576 (HIV-1)
[46] = molecular target: Env of HIV-1 strain Ce2010_F5 (HIV-1)
[47] = molecular target: Env of HIV-1 strain 1394C9G1(Rev-) (HIV-1)
[48] = molecular target: Env of HIV-1 strain BJOX028000.10.3 (HIV-1)
[49] = molecular target: Env of HIV-1 strain PVO.4 (HIV-1)
[50] = molecular target: Env of HIV-1 strain 6535.3 (HIV-1)

B1: NIH45-46^G54W(HC), S28Y(LC) (antibody, V domains shown)
VH: QVRLSQSGGQMKKPGESMRLSCRASGYEFLNCPINWIRLAPGRRPEWMGWLKPRWGAVNYARKFQGRVTMTRDVYSDTAFLELRSLTSDDTAVYFCTRGKYCTARDYYNWDFEHWGRGAPVTVSS
VL: EIVLTQSPATLSLSPGETAIISCRTSQYGSLAWYQQRPGQAPRLVIYSGSTRAAGIPDRFSGSRWGADYNLSISNLESGDFGVYYCQQYEFFGQGTKVQVDI
[1]
  IC50, pseudovirus neutralization: 0.032 µg/mL
[2]
  IC50, pseudovirus neutralization: 0.001 µg/mL
[3]
  IC50, pseudovirus neutralization: 0.007 µg/mL
[4]
  IC50, pseudovirus neutralization: 0.002 µg/mL
[5]
  IC50, pseudovirus neutralization: 0.038 µg/mL
[6]
  IC50, pseudovirus neutralization: 0.002 µg/mL
[7]
  IC50, pseudovirus neutralization: 0.14 µg/mL
[8]
  IC50, pseudovirus neutralization: 0.001 µg/mL
[9]
  IC50, pseudovirus neutralization: 0.001 µg/mL
[10]
  IC50, pseudovirus neutralization: 0.004 µg/mL
[11]
  IC50, pseudovirus neutralization: 0.001 µg/mL
[12]
  IC50, pseudovirus neutralization: 0.173 µg/mL
[13]
  IC50, pseudovirus neutralization: 0.001 µg/mL
[14]
  IC50, pseudovirus neutralization: 0.07 µg/mL
[15]
  IC50, pseudovirus neutralization: 0.032 µg/mL

B2: NIH45-46^G54W (antibody, V domains shown)
VH: B1 VH
VL: B1 VL with Y28S
[16]
  IC80: 0.228 µg/mL
[1]
  IC50, pseudovirus neutralization: 0.117 µg/mL
[17]
  IC80: > 50 µg/mL
[2]
  IC50, pseudovirus neutralization: 0.001 µg/mL
[18]
  IC80: 0.025 µg/mL
[3]
  IC50, pseudovirus neutralization: 0.001 µg/mL
[19]
  IC80: > 50 µg/mL
[20]
  IC80: 0.04 µg/mL
[21]
  IC80: 0.45 µg/mL
[4]
  IC50, pseudovirus neutralization: 0.001 µg/mL
[22]
  IC80: 0.014 µg/mL
[23]
  IC80: 15.4 µg/mL
[24]
  IC80: 0.25 µg/mL
[5]
  IC50, pseudovirus neutralization: 0.042 µg/mL
[25]
  IC80: 0.004 µg/mL
[26]
  IC80: > 50 µg/mL
[27]
  IC80: 0.025 µg/mL
[28]
  IC80: 0.001 µg/mL
[29]
  IC80: 0.099 µg/mL
[6]
  IC50, pseudovirus neutralization: 0.001 µg/mL
[30]
  IC80: 0.07 µg/mL
[31]
  IC80: 0.603 µg/mL
[32]
  IC80: 0.11 µg/mL
[33]
  IC80: > 50 µg/mL
[34]
  IC80: 2.1 µg/mL
[7]
  IC50, pseudovirus neutralization: 0.132 µg/mL
[8]
  IC50, pseudovirus neutralization: 0.001 µg/mL
[35]
  IC80: 0.196 µg/mL
[36]
  IC80: 0.007 µg/mL
[37]
  IC80: 0.16 µg/mL
[38]
  IC80: 0.16 µg/mL
[39]
  IC80: 0.165 µg/mL
[9]
  IC50, pseudovirus neutralization: 0.001 µg/mL
[40]
  IC80: 0.013 µg/mL
[41]
  IC80: 0.017 µg/mL
[42]
  IC80: 0.127 µg/mL
[43]
  IC80: 0.023 µg/mL
[44]
  IC80: 0.16 µg/mL
[10]
  IC50, pseudovirus neutralization: 0.01 µg/mL
[45]
  IC80: 0.095 µg/mL
[46]
  IC80: 0.187 µg/mL
[47]
  IC80: 0.024 µg/mL
[48]
  IC80: 0.002 µg/mL
[11]
  IC50, pseudovirus neutralization: 0.001 µg/mL
[12]
  IC50, pseudovirus neutralization: 0.11 µg/mL
[49]
  IC80: 0.16 µg/mL
[13]
  IC50, pseudovirus neutralization: 0.001 µg/mL
[14]
  IC50, pseudovirus neutralization: 0.021 µg/mL
[50]
  IC80: 0.13 µg/mL
[15]
  IC50, pseudovirus neutralization: 0.009 µg/mL

B3: NIH45-46^G54W(HC) S28Y(LC) (antibody, V domains shown)
VH: B1 VH
VL: B1 VL
[16]
  IC80: 0.229 µg/mL
[17]
  IC80: > 50 µg/mL
[18]
  IC80: 0.067 µg/mL
[19]
  IC80: > 50 µg/mL
[20]
  IC80: 0.073 µg/mL
[21]
  IC80: 0.467 µg/mL
[22]
  IC80: 0.011 µg/mL
[23]
  IC80: 0.037 µg/mL
[24]
  IC80: 0.159 µg/mL
[25]
  IC80: 0.006 µg/mL
[26]
  IC80: > 50 µg/mL
[27]
  IC80: 0.017 µg/mL
[28]
  IC80: 0.013 µg/mL
[29]
  IC80: 0.13 µg/mL
[30]
  IC80: 0.045 µg/mL
[31]
  IC80: 0.623 µg/mL
[32]
  IC80: 0.076 µg/mL
[33]
  IC80: > 50 µg/mL
[34]
  IC80: 1.44 µg/mL
[35]
  IC80: 0.239 µg/mL
[36]
  IC80: 0.017 µg/mL
[37]
  IC80: 0.289 µg/mL
[38]
  IC80: 0.257 µg/mL
[39]
  IC80: 0.515 µg/mL
[40]
  IC80: 0.01 µg/mL
[41]
  IC80: 0.019 µg/mL
[42]
  IC80: 0.254 µg/mL
[43]
  IC80: 0.054 µg/mL
[44]
  IC80: 0.047 µg/mL
[45]
  IC80: 0.109 µg/mL
[46]
  IC80: 0.133 µg/mL
[47]
  IC80: 0.055 µg/mL
[48]
  IC80: 0.006 µg/mL
[49]
  IC80: 0.099 µg/mL
[50]
  IC80: 0.059 µg/mL
